From patent US20110118131A1 (published 2011)
Residue numbers refer to the chain shown, from its start. In names and notes the source's numbering stands.

T1: Ep-CAM (UniProt P16422 24-265, limits assumed)
T1 construct: Antigen of the Biacore analysis of ING-1 variants
T1 sequence (looked up): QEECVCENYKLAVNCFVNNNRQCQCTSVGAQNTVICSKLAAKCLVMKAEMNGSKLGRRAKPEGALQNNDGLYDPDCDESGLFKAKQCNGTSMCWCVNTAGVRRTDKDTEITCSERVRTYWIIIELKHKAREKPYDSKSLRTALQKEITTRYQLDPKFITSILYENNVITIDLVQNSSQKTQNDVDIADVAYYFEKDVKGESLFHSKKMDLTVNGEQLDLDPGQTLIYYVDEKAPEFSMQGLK

T2: Ep-CAM (UniProt P16422 24-265, limits assumed)
T2 construct: Amine coupled to a CM5 chip in the Biacore assays
T2 sequence (looked up): T1 sequence (looked up)

B1: ING-1 heavy chain T59H (Fab, V domains shown)
VH: QIQLVQSGPELKKPGETVKISCKASGYTFTKYGMNWVKQAPGKGLKWMGWINTYTEEPHYGDDFKGRFAFSLETSASTANLQINNLKSEDTATYFCARFGSAVDYWGQGTSVTVSS
VL: DIVMTQAAFSNPVTLGTSGSISCRSSKSLLHSNGITYLYWYLQKPGQSPQLLIYQMSNLASGVPDRFSSSGSGTDFTLRISRVEAEDVGVYYCAQNLELPRTFGGGTKLEMKR
B2: ING-1 heavy chain Y105K (Fab, V domains shown)
VH: B1 VH with H59T, Y105K
VL: B1 VL
B3: ING-1 heavy chain Y54E (Fab, V domains shown)
VH: B1 VH with Y54E, H59T
VL: B1 VL
B4: ING-1 heavy chain W50K (Fab, V domains shown)
VH: B1 VH with W50K, H59T
VL: B1 VL
B5: ING-1 heavy chain Y32E (Fab, V domains shown)
VH: B1 VH with Y32E, H59T
VL: B1 VL
B6: ING-1 heavy chain T55Y (Fab, V domains shown)
VH: B1 VH with T55Y, H59T
VL: B1 VL
B7: ING-1 heavy chain W50Y (Fab, V domains shown)
VH: B1 VH with W50Y, H59T
VL: B1 VL
B8: ING-1 heavy chain W50H (Fab, V domains shown)
VH: B1 VH with W50H, H59T
VL: B1 VL
B9: ING-1 heavy chain Y32K (Fab, V domains shown)
VH: B1 VH with Y32K, H59T
VL: B1 VL
B10: ING-1 heavy chain Y105S (Fab, V domains shown)
VH: B1 VH with H59T, Y105S
VL: B1 VL
B11: ING-1 heavy chain Y105E (Fab, V domains shown)
VH: B1 VH with H59T, Y105E
VL: B1 VL
B12: ING-1 heavy chain Y54D (Fab, V domains shown)
VH: B1 VH with Y54D, H59T
VL: B1 VL
B13: ING-1 heavy chain W50N (Fab, V domains shown)
VH: B1 VH with W50N, H59T
VL: B1 VL
B14: ING-1 heavy chain Y32H (Fab, V domains shown)
VH: B1 VH with Y32H, H59T
VL: B1 VL
B15: ING-1 heavy chain W50R (Fab, V domains shown)
VH: B1 VH with W50R, H59T
VL: B1 VL
B16: ING-1 heavy chain W50Q (Fab, V domains shown)
VH: B1 VH with W50Q, H59T
VL: B1 VL
B17: ING-1 heavy chain W50F (Fab, V domains shown)
VH: B1 VH with W50F, H59T
VL: B1 VL
B18: ING-1 heavy chain Y32Q (Fab, V domains shown)
VH: B1 VH with Y32Q, H59T
VL: B1 VL
B19: ING-1 heavy chain Y105D (Fab, V domains shown)
VH: B1 VH with H59T, Y105D
VL: B1 VL
B20: ING-1 heavy chain W50S (Fab, V domains shown)
VH: B1 VH with W50S, H59T
VL: B1 VL
B21: ING-1 heavy chain W50E (Fab, V domains shown)
VH: B1 VH with W50E, H59T
VL: B1 VL
B22: ING-1 heavy chain T59Q (Fab, V domains shown)
VH: B1 VH with H59Q
VL: B1 VL
B23: ING-1 heavy chain Y32S (Fab, V domains shown)
VH: B1 VH with Y32S, H59T
VL: B1 VL
B24: ING-1 heavy chain T55W (Fab, V domains shown)
VH: B1 VH with T55W, H59T
VL: B1 VL
B25: ING-1 heavy chain Y54H (Fab, V domains shown)
VH: B1 VH with Y54H, H59T
VL: B1 VL
B26: ING-1 light chain E98N (Fab, V domains shown)
VH: B1 VH with H59T
VL: B1 VL with E98N
notes: Fab, periplasmic extract
B27: ING-1 light chain L29R (Fab, V domains shown)
VH: B1 VH with H59T
VL: B1 VL with L29R
notes: Fab, periplasmic extract
B28: ING-1 light chain L29D (Fab, V domains shown)
VH: B1 VH with H59T
VL: B1 VL with L29D
notes: Fab, periplasmic extract
B29: ING-1 light chain L29W (Fab, V domains shown)
VH: B1 VH with H59T
VL: B1 VL with L29W
notes: Fab, periplasmic extract
B30: ING-1 light chain K27W (Fab, V domains shown)
VH: B1 VH with H59T
VL: B1 VL with K27W
notes: Fab, periplasmic extract
B31: ING-1 light chain L29E (Fab, V domains shown)
VH: B1 VH with H59T
VL: B1 VL with L29E
notes: Fab, periplasmic extract
B32: ING-1 light chain K27N (Fab, V domains shown)
VH: B1 VH with H59T
VL: B1 VL with K27N
notes: Fab, periplasmic extract
B33: ING-1 light chain K27E (Fab, V domains shown)
VH: B1 VH with H59T
VL: B1 VL with K27E
notes: Fab, periplasmic extract
B34: ING-1 light chain H31N (Fab, V domains shown)
VH: B1 VH with H59T
VL: B1 VL with H31N
notes: Fab, periplasmic extract
B35: ING-1 light chain L29Q (Fab, V domains shown)
VH: B1 VH with H59T
VL: B1 VL with L29Q
notes: Fab, periplasmic extract
B36: ING-1 light chain H31R (Fab, V domains shown)
VH: B1 VH with H59T
VL: B1 VL with H31R
notes: Fab, periplasmic extract
B37: ING-1 light chain K27S (Fab, V domains shown)
VH: B1 VH with H59T
VL: B1 VL with K27S
notes: Fab, periplasmic extract
B38: ING-1 light chain E98S (Fab, V domains shown)
VH: B1 VH with H59T
VL: B1 VL with E98S
notes: Fab, periplasmic extract
B39: ING-1 light chain L29Y (Fab, V domains shown)
VH: B1 VH with H59T
VL: B1 VL with L29Y
notes: Fab, periplasmic extract
B40: ING-1 light chain L29F (Fab, V domains shown)
VH: B1 VH with H59T
VL: B1 VL with L29F
notes: Fab, periplasmic extract
B41: ING-1 light chain H31K (Fab, V domains shown)
VH: B1 VH with H59T
VL: B1 VL with H31K
notes: Fab, periplasmic extract
B42: ING-1 light chain I35N (Fab, V domains shown)
VH: B1 VH with H59T
VL: B1 VL with I35N
notes: Fab, periplasmic extract
B43: ING-1 light chain L30E (Fab, V domains shown)
VH: B1 VH with H59T
VL: B1 VL with L30E
notes: Fab, periplasmic extract

The binders below were run against T1, Ep-CAM (assay: Biacore, Fab periplasmic extract).

| fold difference in affinity vs original | binding result | Binder |
| --- | --- | --- |
| 0.4 fold |  | B1 |
|  | no binding | B2 |
| 0.07 fold |  | B3 |
| 0.04 fold |  | B4 |
| 0.08 fold |  | B5 |
| 0.03 fold |  | B6 |
| 0.04 fold |  | B7 |
| 0.02 fold |  | B8 |
| 0.08 fold |  | B9 |
| 0.09 fold |  | B10 |
|  | no binding | B11 |
| 0.05 fold |  | B12 |
| 0.03 fold |  | B13 |
| 0.6 fold |  | B14 |
| 0.1 fold |  | B15 |
| 0.01 fold |  | B16 |
| 0.09 fold |  | B17 |
| 0.1 fold |  | B18 |
|  | no binding | B19 |
| 0.02 fold |  | B20 |
|  | no binding | B21 |
|  | no binding | B22 |
| 0.01 fold |  | B23 |
| 0.1 fold |  | B24 |
| 1 fold |  | B25 |

These binders were tested against T2, Ep-CAM (assay: Biacore, Fab periplasmic extract).

| binding result | fold difference in affinity vs parental ING-1 | Binder |
| --- | --- | --- |
| no binding |  | B26 |
| no binding |  | B27 |
| no binding |  | B28 |
| no binding |  | B29 |
| no binding |  | B30 |
| no binding |  | B31 |
| no binding |  | B32 |
| no binding |  | B33 |
|  | 0.5 fold | B34 |
| no binding |  | B35 |
|  | 0.06 fold | B36 |
| no binding |  | B37 |
| no binding |  | B38 |
| no binding |  | B39 |
| no binding |  | B40 |
|  | 0.05 fold | B41 |
|  | 0.5 fold | B42 |
| no binding |  | B43 |
